Test results: the nanobody polyreactivity screen of Harvey et al. (2022)

Experiment: yeast display, Sf9 membrane polyspecificity reagent, FACS + sequencing; frameworks hold sequencing errors
Method in brief: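 Nanobodies from a synthetic yeast display library (Saccharomyces cerevisiae BJ5465), induced 36–48 hours with galactose, were stained 1 hour at 4 °C with 10% biotinylated, detergent-solubilized Sf9 membrane reagent, enriched on streptavidin microbeads, then FACS-sorted. Anti-HA (expression) and streptavidin (reagent binding) fluorescence set low and high (top ~1%) gates. Polyreactivity labels come from the gate of origin. Genes were colony-PCR amplified, MiSeq 2 × 250 sequenced and filtered by CDR length.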

Sequence	polyreactivity (PSR sort gate)
QVQLVESGGGLVQAGGSLRLSCAASGFTFRKNDMGWYRQAPGKERELLAAISSGGGRTYYADSVKWRFTISRDNAKNTVYLQMNSLKQEDTAVYYCNADDGYYVGLSSAIYDYCGQGTQVTVSS	high polyreactivity
QVQLVESGGGLVQAGGSLRLSCAASGRTFGYNVMGWYRQAPGKERELVAAINRGGGSTYYADSVKGRFTISRDNANNTVYLQMNSLKPEDTAVYYCIKRYRVWFDYWGQGTQVTVSS	high polyreactivity
QVQLVESGGGLVQAGGSLRLSCAASGRTFSYYSMGWYRQAPGKERELVAAITSGGGRTYYADSVKGRFTISRDNAKNTVYLQMNRLKPEDTAVYYCNALYTLYNGYDYWGQGTQVTVSS	high polyreactivity
QVQLVESGGGLVQAGGSLRLSCAASGRIFAHYAMGWYRPAPGKERELVAAISSGGSTYYADSVKGRFTISRDNAKNTVYLQMKSLKPEDTAVYYCNKRPVRRKYDYWGQGTQVTVSS	low polyreactivity
QVQLVESGGGLGQAGGSLRLSCAASGFTFYAYVMGWYRQAPGKESELVAAISGSGSSTYYADSVKGRFTISRDNAKNTVDLEMNSLKPEDTAVYYCGAPQLYQYGGFGYWGQGTQVTVSS	high polyreactivity
QVQLEESGGGLVQAGGSLRLSCAASGRIFVIYAMGWYRQAPGKERELVAVITSGGRTYYADSVNGRFTISRDNAKNTVYLQMNRLKPEDTAVYYCAARTGRGFEYWGQGTQVTVSS	high polyreactivity
QVHLVESGGGLVQAGGSLRLSCAASGSTFYYYVMGWYRQAPGKERELVAAINISGGNTYYADSVKGRFTISRDNAKNTVYLKKNSLIPEDTAVYYCAADYRSSRTTEYYYWGQGTQVTVSS	low polyreactivity
QVQLVESGGGLVQAGGSLRLSCAASGSIFTYYDMGWYRQAPGKEREWVAGISRRGSTYYADSVKGRFTISRDNAKNTVYLQMNSLKPEDTAVYYCAADPWVGTLYPRVGYWGQGTQVTVSS	low polyreactivity
QVQHVESGLGLVQAGCSLRLSCAASGITFYPYTMGWYRQAPGKERELVAAIDYNGDSTYYADSVKGRFTISRDNAKNTVYLQFNSLKPEDTAVYYCAADVWTLDPDEYDYWGQGTQVTVSS	low polyreactivity
QVQLVESSGGLVQAGGSLRLSCAASGFNFKRYAMGWSRQAPGKEREMVAAINSGGSTNYADSVKGRFTISRDNAKNTVYLQMNSLKPEDTAVYYCAASTSRYYWYALRDYWGQGTQVTVSS	high polyreactivity
QVQLVESGGGLVQAGGSLRLSCAASGRTFGPYAMGWYRQAPGKERELVATISSNGASTYYADSVKGRFTISRDNAKNTVYLQMNSLKPEDTAVYYCAAEFHFWGYLYDYWGQGTQVTVSS	low polyreactivity
QVQLVESGGGLVQAGGSLRLSCAASGPTFRANAMGWYRQAPGKEREMVAAISQRGGNTYYADSVKGRFTISRDKAKNTVYLQMNSLKPEDTAVYYCSADITTYRRGRYEYEYWGQGTQVTVSS	high polyreactivity
QVQLVESGGGLVQAGGSLRLSCAASGSNYPPNAMGWYRQAPGKEREFVASITSSGGITNYADSVKGRFTISRDNAKNTVYLQMNSLKPVDTAVYYCAAKYYGGTRFRPYGYWGQGTQVTVSS	high polyreactivity
QVHLVESGGGLVQAGGSLRLSCAASGSISLNAMGWYTQAPGKERELDAGISNDDGTNYADSVKGRFTISRDNAKNPVYLQMNSLKPEDTAVYYCNAERDFVEDYWTYLRYDYWGQGTQVTVSS	low polyreactivity
QVQLVESGGGLVQAGGSLRLSCAASGNIFDLYAMGWYRQAPGKERELVAAITRSSSRTYYADSVKGRFTISRDNAKNTVYLQMNSLKPEDTAVYYCAAKYSNGSGFDYWGQGTQVTVSS	high polyreactivity
QVQLVESGGGLVQAGGSLRLSCAASGFIFYAYAMGWDRQAPGKERELVAAISRGGGSTYYADSVKGRFTISRDNAKNTVYLQMNSLKPEDTAVYYCAADFYYDRDVDFWGQGTQVTVSS	high polyreactivity
QVQLVESGGGLVQAGGSLRLSCAASGSIFYHNAMGWYRQAPGKERELVAAISRSGGITSYADSVKGRFTISRDNAKNTVYLQMNSLKPEDTAVYYCAARSYYDGFYYWGQGTQVTVSS	high polyreactivity
QVQLVESGGGLVQAGGSLRLSCAASGIIFDINAMGWYRQAPGKERELVAAITTSVDSTYYADSVKGRFTISRDNAKNTVYLQMNRLKPEDTAVYYCAVAFVQFTQYDYWGQGTQVTVSS	low polyreactivity
QVQLEESGGGLVQAGGSLRLTCAASGRTFDFYAMGWYRQAPGKEREFVAAITFSTGSTTYADSVKGRFTISRDNAKNTVYLQMNSLKPEDTAVYYCNADAFNKISYVWYDYWGQGTQVTVSS	low polyreactivity
QVQRVESGRGLFHAGGSLRLSCAASGSIFIWNDMGWYRQAPGKERELVAAITISAGSTSYADSVKGRFTISRDNAKNTVYLQMKSLKPEDTAVYYCAAASWLGAYGYEYDYWGQGTQVTVSS	low polyreactivity
QVQLVESGGGIVQAGGSLRLSCAASGFTFYYNAMGWYRQAPGKERELVAAISYRGGSTYYADSVKGRFTISRDNAKNTVYFQMNSLKPEDTAVYYCATRDPAFYRRYDYWGQATQVTVSS	high polyreactivity
QVQLVESGGGLVQAGGSLRLSWAAYGNIFPHYAMGWYIQAPGKERELVAGITSSGGSTSYADSVKGRFTISRDNAKKTVYLQMNSLKPEDTAVYYCAAPRGQRVRDVYWGQGTQVTVSS	low polyreactivity

Sequence	polyreactivity (PSR sort gate)
QVQLVESGRGLVQAGGSLRLSCAPSGSNFPPNAMGWYRQAPGKEREFVASITSSGGITNYADSVKGRFTISRDNAKNTVYLQMNSLKPEDTAVYFCAAVQTWRWVYARDYWGQGTQVTVSS	high polyreactivity
QVQLVESGGGLVQAGGSLRFSCAASGSIFGSYAMGWYRQAPGKERELVAAITRGGGTTYYADSVKGRFTISRDNAKNTVYLQMNSLKPEDTAVYYCAAKWYHPYGPVYYWGQGTQVTVSS	high polyreactivity
QVQLVESGGGLVQAGGSLRLSCAASGRTFLLNAMGWYRQAPGKERELVAAITGSGGRTNYADSVKGRFTISRDNAKNTVYLQMNSLKPEDTAVYYCNARFPDWALSEISHSTTYGYWGQGTQVTVSS	low polyreactivity
QVQLQESGGGLEQAGGSLRLSCAATGTIFTDRFMGWYRQAPGKERELVAGISPGTSSNSADSVKGRFTISRDNAKNTVYLQMNSLKPEDTAVYYCAADWSTGNTLPYWGQGTQVTVSS	high polyreactivity
QVQLVESGGGLVQAGGSLRLSCAASGRIFAPYAMGWYRQAPGKERELVAAISWRVGSTYYADSVKVRFTISRDYAKNTVYLQMNSLKPDDTAVYYCAARPSYRYDYLGQGTQVTVSS	high polyreactivity
QVQLVESGGGLVQAGGSLRLSCAASGSTFWVNAMGWYRQAPGKVRELVAAIRRGGSTKYADSVKGRFTISRDNAKNTFYLQINSLKPEDTAVSYCAADAPGHEYYYWGQGTQVTVSS	high polyreactivity
QVQLVESGGGLVQAGGSLSLSCDASGRIFPKYAMGWYRQAPGKEREMVAGITKLVGSTYYADSVKGRFTISRDNAKNTVYLQMNSLKPEDTAVYYCAADYSYLIDYLDPEKEGMDFWGQGTQVTVSS	low polyreactivity
QVQLVESGGGLVQAGGSLRLSCAASGSTFGYYAMGWYRQAPGKERELVAAITRGGGRTYYADSVKGRFTISRDNAKNTVYLQMNSLKPEDTAVYYCAAVEPTREYYYWGQGTQVTVSS	high polyreactivity
QVQLVESGGGLVQAGGSLRLSCAASGSTFDPNVMGWYRQAPGKERELVAVITTTGVSTYYADSVKGRFTISRDNAKNTVYLQMNSLKPEDTAVYYCNAKWYWYLTRDAYRYRYTYDYWGQGTQVTVSS	low polyreactivity
QVQLVESGGGLVQAGGSLRLSCAASGSTFLSYAMGWYRQAPGKEREMVAAISYSAGSTYYADSVKGRFTISRDNAKNTVYLQMNSLKPEDTAVYYCGAVQLVPGYVDSNDYYWGQGTQVTVSS	low polyreactivity
QVQLVESGGGLVQAGGSLRLSCAASGFIFRYYAMGWYRQAPGKERELVAAISSSGGSTRYADSVKGRFTISRDNAKNTVYLQMNSLKPEDTAVYYCAARRWRGRYWGDYWGQGTQVTVSS	high polyreactivity
QVQLVESGGGLVQAAGSLRFSWAASRSIFRQYGMGWYRQAHGKERELVARISRRSGTTYYADSVKGRFTISRDYAKNTVYLQMNSLKPEDSAVSYCAAVPGWIHVDYWGQGTQVTVSS	high polyreactivity
QVQLVESGGGLVQAGCSLRLSCAASGGIFSAYVMGWYRQAPGKERELVAAITRRGGATYYADSVKGRFTISRDNAKNTVYLQMNSLKPEDTAVYYCAADDQYYTEYYYWGQGTQVTVSS	high polyreactivity
QVQLVESGGGLVQAGGSLRLSSAASGRILKYYAMGWYRQAPGKERELVAAIGSGGSTYYADSVKGRFTISRDNAKNTVYLQMNSLKPDDTAVYYCNAEDQWGGYGYDYWGQGTQLTVSS	low polyreactivity
QVQLVESGGGLVQAGGSLRLSCAASGRIFGRYAMGWYRQAPGNERELVAAISRRGSRTYYADSVKGRFTISRDNAKNTVYLQMNSLKPEDTAVYYCNALTGSFKTYSFDYWGQGTQVTVSS	high polyreactivity
QVQLVESGGGLVQAGGSLRLSCAASRIFFNGYAMGWYRQAHGSERELVAAITVSGGRTFYADSVKGRFTISRDNAKNTVYLQMNSLKPEDTAVYYCNAVPRRVRLYDYWGQGTQVNVSS	high polyreactivity
QVQLVESGGGLDQAGGSLRLSCAASGFTFWRYAMGWYRQAPGKERELVAAISWSGGSTYYADSVKGRFTISRDNAKNTVYLQMNSLKPEDTAVYYCTAQYGSRSYRYGYWGQGTQVTVSS	high polyreactivity
QVQLVDSGGGLVQAGGSLRLSCAASGYTLSVNAMGWYRQAPGKERELVATIDFGGGSTYYADSVKGRFTISRDNAKNTVYLQMNSLKPEDTAVYYCNAHDFGFYRFSLPGYDYWGQGTQVTVSS	low polyreactivity
QVQLVESGGGLVQAGGSLRLSCAASGIIFHYYAMGWYRQAPGKEREFVASISFSGASTYYADSVKGRFTISRDNAKNTVYLQMNSLKPEDTAVYYCAARYLYGPKYYYCGQGTQVTVSS	high polyreactivity
QVQLVESGGGLVQAGGSLRLSCAASGFIFSYNAMGSYRQAPGKERELVAAISRRGGSTYYADSVKGRFTISRDNAKNTVYLQMNSLKPEDTAVYYCAAKSYLDSSGTFNYWGQGTQVTVSS	high polyreactivity
QVQLVESGGGLVQAGGSLRLSCAASGYIFLYYTMGWYRQAPGKERELVAAITIGGGTYYADSVKGRFTISRDNAKNTVYLQMNSLKPEDTAVYYCNADYASYYRYSRPLEMNYWGQGTQVTVSS	low polyreactivity
